The labels stand for the following.
B1: CD3.100 (AC3429) (bispecific antibody, V domains shown)
VH: EVQLLESGGGIVQPGGSLKLSCAASGFTFNTYAMNWVRQAPGKGLEWVARIRSKYNNYATYYADSVKDRFTISRDDSKNTVYLQMNQLKTEDTAVYYCVRHENFGNSYVSWFAHWGQGTLVTVSS
VL: ELVVTQEPSLTVSPGGTVTLTCRSSNGAVTSSNYANWVQQKPGQAPRGLIGGTNKRAPGTPARFSGSLLGGKAALTLSGVQPEDEAVYYCALWYPNLWVFGGGTKLTVL
B2: CD3.105 (AC3434) (bispecific antibody, V domains shown)
VH: EVQLLESGGGIVQPGGSLKLSCAASGFTFNTYAMNWVRQAPGKGLEWVARIRSKYNNYATYYADSVKDRFTISRDDSKNTVYLQMNNLKTEDTAVYYCVRHENFGNSYVSWFAHWGQGTLVTVSS
VL: ELVVTQEPSLTVSPGGTVTLTCRSSNGAVTSSNYANWVQQKPGQAPRGLIGGTNKRAPGTPARFSGSLLEGKAALTLSGVQPEDEAVYYCALWYPNLWVFGGGTKLTVL
B3: CD3.101 (AC3430) (bispecific antibody, V domains shown)
VH: EVQLLESGGGIVQPGGSLKLSCAASGFTFNTYAMNWVRQAPGKGLEWVARIRSKYNNYATYYADSVKDRFTISRDDSKNTVYLQMNSLKTEDTAVYYCVRHENFGNSYVSWFAHWGQGTLVTVSS
VL: ELVVTQEPSLTVSPGGTVTLTCRSSNGAVTSSNYANWVQQKPGQAPRGLIGGTNKRAPGTPARFSGSLLGGKAALTLSGVQPEDEAVYYCALWYPNLWVFGGGTKLTVL
B4: CD3.106 (AC3435) (bispecific antibody, V domains shown)
VH: EVQLLESGGGIVQPGGSLKLSCAASGFTFNTYAMNWVRQAPGKGLEWVARIRSKYNNYATYYADSVKDRFTISRDDSKNTVYLQMNNLKTEDTAVYYCVRHENFGNSYVSWFAHWGQGTLVTVSS
VL: ELVVTQEPSLTVSPGGTVTLTCRSSNGAVTSSNYANWVQQKPGQAPRGLIGGTNKRAPGTPARFSGSLDGGKAALTLSGVQPEDEAVYYCALWYPNLWVFGGGTKLTVL
B5: CD3.110 (AC3439) (bispecific antibody, V domains shown)
VH: EVQLLESGGGIVQPGGSLKLSCAASGFTFNTYAMNWVRQAPGKGLEWVARIRSKYNNYATYYADSVKDRFTISRDDSKNTVYLQMNNLKTEDTAVYYCVRHENFGNSYVSWFAHWGQGTLVTVSS
VL: ELVVTQEPSLTVSPGGTVTLTCRSSNGAVTSSNYANWVQQKPGQAPRGLIGGTNKRAPGTPARFSGSTLGGKAALTLSGVQPEDEAVYYCALWYPNLWVFGGGTKLTVL
B6: CD3.109 (AC3438) (bispecific antibody, V domains shown)
VH: EVQLLESGGGIVQPGGSLKLSCAASGFTFNTYAMNWVRQAPGKGLEWVARIRSKYNNYATYYADSVKDRFTISRDDSKNTVYLQMNNLKTEDTAVYYCVRHENFGNSYVSWFAHWGQGTLVTVSS
VL: ELVVTQEPSLTVSPGGTVTLTCRSSNGAVTSSNYANWVQQKPGQAPRGLIGGTNKRAPGTPARFSGSNLGGKAALTLSGVQPEDEAVYYCALWYPNLWVFGGGTKLTVL
B7: CD3.104 (AC3433) (bispecific antibody, V domains shown)
VH: EVQLLESGGGIVQPGGSLKLSCAASGFTFNTYAMNWVRQAPGKGLEWVARIRSKYNNYATYYADSVKDRFTISRDDSKNTVYLQMNNLKTEDTAVYYCVRHENFGNSYVSWFAHWGQGTLVTVSS
VL: ELVVTQEPSLTVSPGGTVTLTCRSSNGAVTSSNYANWVQQKPGQAPRGLIGGTNKRAPGTPARFSGSLQGGKAALTLSGVQPEDEAVYYCALWYPNLWVFGGGTKLTVL
B8: CD3.108 (AC3437) (bispecific antibody, V domains shown)
VH: EVQLLESGGGIVQPGGSLKLSCAASGFTFNTYAMNWVRQAPGKGLEWVARIRSKYNNYATYYADSVKDRFTISRDDSKNTVYLQMNNLKTEDTAVYYCVRHENFGNSYVSWFAHWGQGTLVTVSS
VL: ELVVTQEPSLTVSPGGTVTLTCRSSNGAVTSSNYANWVQQKPGQAPRGLIGGTNKRAPGTPARFSGSKLGGKAALTLSGVQPEDEAVYYCALWYPNLWVFGGGTKLTVL
B9: CD3.102 (AC3431) (bispecific antibody, V domains shown)
VH: EVQLLESGGGIVQPGGSLKLSCAASGFTFNTYAMNWVRQAPGKGLEWVARIRSKYNNYATYYADSVKDRFTISRDDSKNTVYLQMNYLKTEDTAVYYCVRHENFGNSYVSWFAHWGQGTLVTVSS
VL: ELVVTQEPSLTVSPGGTVTLTCRSSNGAVTSSNYANWVQQKPGQAPRGLIGGTNKRAPGTPARFSGSLLGGKAALTLSGVQPEDEAVYYCALWYPNLWVFGGGTKLTVL
B10: CD3.107 (AC3436) (bispecific antibody, V domains shown)
VH: EVQLLESGGGIVQPGGSLKLSCAASGFTFNTYAMNWVRQAPGKGLEWVARIRSKYNNYATYYADSVKDRFTISRDDSKNTVYLQMNNLKTEDTAVYYCVRHENFGNSYVSWFAHWGQGTLVTVSS
VL: ELVVTQEPSLTVSPGGTVTLTCRSSNGAVTSSNYANWVQQKPGQAPRGLIGGTNKRAPGTPARFSGSSLGGKAALTLSGVQPEDEAVYYCALWYPNLWVFGGGTKLTVL

CD3 (target of the Pool 1 CD3.23 screen), sequence (P07766 23-126): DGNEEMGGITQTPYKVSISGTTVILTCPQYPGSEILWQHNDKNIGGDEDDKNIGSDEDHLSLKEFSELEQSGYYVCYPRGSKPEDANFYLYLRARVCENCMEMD

The test concerns the target CD3 (target of the Pool 1 CD3.23 screen). Briefly: Octet, crude lysate. (In general: BLI is a label-free optical method that tracks binding on a fibre tip over time.)
For the molecule B1, the dissociation constant (Kd) (in general, a measure of binding affinity in units of concentration) was determined as 7.1 nM. That is a single-digit nanomolar value.

Take B2: the Kd was 4.9 nM. The Kd values of the last two molecules are within 1.5-fold of each other.

The molecule B3 registered a Kd of 4.8 nM.

Turning to B4, the Kd is 6.1 nM.

In the case of B5, the Kd worked out at 8.9 nM. This Kd and that of the molecule before are within 1.5-fold of each other.

The molecule B6 returned a Kd of 8.3 nM.

In the case of B7, the Kd was 4.6 nM. Against the preceding molecule, the Kd is about 1.8-fold lower.

B8 gave a Kd of 3.2 nM.

The molecule B9 gave a Kd of 5.5 nM.

Consider B10, for which the Kd came out at 7.3 nM.

(Values after patent publication US20250188184A1.)
